Measurements published in paper PMC3594540 (Nature structural & molecular biology, 2013).
Where a chain is given by its changes, count along the chain named.

What was measured:
Assay in all cases: cell-based or functional assay
[1] = molecular target: T1, PLCβ3 L876A EEE (human, UniProt Q01970)
T1 chain: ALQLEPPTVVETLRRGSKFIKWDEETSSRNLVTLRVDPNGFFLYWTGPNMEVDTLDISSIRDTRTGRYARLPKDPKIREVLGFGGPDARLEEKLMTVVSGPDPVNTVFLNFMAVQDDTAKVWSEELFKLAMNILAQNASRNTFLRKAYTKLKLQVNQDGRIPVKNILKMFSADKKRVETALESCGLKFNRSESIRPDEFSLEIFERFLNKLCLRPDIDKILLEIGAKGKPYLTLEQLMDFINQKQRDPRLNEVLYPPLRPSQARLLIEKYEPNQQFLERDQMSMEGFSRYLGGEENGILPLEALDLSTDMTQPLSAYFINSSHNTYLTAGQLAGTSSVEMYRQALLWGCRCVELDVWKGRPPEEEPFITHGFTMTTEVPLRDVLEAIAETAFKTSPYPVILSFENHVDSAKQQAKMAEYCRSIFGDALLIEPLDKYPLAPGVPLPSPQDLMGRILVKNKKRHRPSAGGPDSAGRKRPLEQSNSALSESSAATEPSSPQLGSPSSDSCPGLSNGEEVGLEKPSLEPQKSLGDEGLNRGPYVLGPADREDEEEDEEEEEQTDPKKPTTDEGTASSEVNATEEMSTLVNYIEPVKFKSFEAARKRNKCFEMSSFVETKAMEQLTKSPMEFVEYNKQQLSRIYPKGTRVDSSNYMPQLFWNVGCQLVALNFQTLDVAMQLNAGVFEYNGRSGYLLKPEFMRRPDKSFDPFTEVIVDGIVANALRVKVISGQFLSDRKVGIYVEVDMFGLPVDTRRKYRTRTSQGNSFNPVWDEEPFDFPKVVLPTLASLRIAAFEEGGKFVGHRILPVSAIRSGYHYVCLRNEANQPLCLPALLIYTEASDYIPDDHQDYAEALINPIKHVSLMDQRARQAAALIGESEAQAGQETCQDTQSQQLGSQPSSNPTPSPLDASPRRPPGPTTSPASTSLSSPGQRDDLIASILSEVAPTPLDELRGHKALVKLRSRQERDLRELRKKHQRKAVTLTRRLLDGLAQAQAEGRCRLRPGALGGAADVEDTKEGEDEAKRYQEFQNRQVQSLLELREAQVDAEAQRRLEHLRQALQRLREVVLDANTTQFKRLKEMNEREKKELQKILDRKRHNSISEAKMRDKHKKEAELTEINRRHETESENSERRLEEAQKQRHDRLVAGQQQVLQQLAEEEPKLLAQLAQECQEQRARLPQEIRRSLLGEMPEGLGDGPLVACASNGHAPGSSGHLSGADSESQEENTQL

[2] = molecular target: PLCβ3 L876A (human, UniProt Q01970 10-1234, L876A)
[3] = molecular target: T2, PLCβ3 I1129E V1133E I1136E triple mutant (human, UniProt Q01970)
T2 chain: T1 chain with A867L

B1: murine Gαq (residues 7–359), biotinylated for bead binding (natural protein)
chain: MACCLSEEAKEARRINDEIERQLRRDKRDARRELKLLLLGTGESGKSTFIKQMRIIHGSGYSDEDKRGFTKLVYQNIFTAMQAMIRAMDTLKIPYKYEHNKAHAQLVREVDVEKVSAFENPYVDAIKSLWNDPGIQECYDRRREYQLSDSTKYYLNDLDRVADPSYLPTQQDVLRVRVPTTGIIEYPFDLQSVIFRMVDVGGQRSERRKWIHCFENVTSIMFLVALSEYDQVLVESDNENRMEESKALFRTIITYPWFQNSSVILFLNKKDLLEEKIMYSHLVDYFPEYDGPQRDAQAAREFILKMFVDLNPDSDKIIYSHFTCATDTENIRFVFAAVKDTILQLNLKEYNLV
[1]
  EC50 of Gαq-stimulated PIP2 hydrolysis ([3H]-IP3 release from liposomes): 32 nM
  Max specific activity of Gαq-stimulated PIP2 hydrolysis (liposomes): 3900 nmol IP3/min/nmol PLCβ3
[2]
  EC50 of Gαq-stimulated PIP2 hydrolysis ([3H]-IP3 release from liposomes): 19 nM
  Max specific activity of Gαq-stimulated PIP2 hydrolysis (liposomes): 6500 nmol IP3/min/nmol PLCβ3
[3]
  EC50 of Gαq-stimulated PIP2 hydrolysis ([3H]-IP3 release from liposomes): 280 nM
  Max specific activity of Gαq-stimulated PIP2 hydrolysis (liposomes): 1900 nmol IP3/min/nmol PLCβ3
